Measured values published in publication PMC9117644 (Frontiers in Bioengineering and Biotechnology, 2022).

Molecular target: T1, human TLR4 ectodomain (S2-derived) (human, UniProt O00206 23-629)
T1 construct: human toll-like receptor 4 ectodomain, UniProtKB O00206, P23-M629, Drosophila codon-optimized; Cloned into pExpreS2-1-CRPA (Addgene #175445): N-terminal BiP signal peptide for secretion, C-terminal thrombin-cleavable Protein A tag; a few residues of the thrombin site probably remain after cleavage; also called toll-like receptor 4; Drosophila-derived TLR4; source: purified (IgG Sepharose, …)
T1 sequence (O00206 23-629): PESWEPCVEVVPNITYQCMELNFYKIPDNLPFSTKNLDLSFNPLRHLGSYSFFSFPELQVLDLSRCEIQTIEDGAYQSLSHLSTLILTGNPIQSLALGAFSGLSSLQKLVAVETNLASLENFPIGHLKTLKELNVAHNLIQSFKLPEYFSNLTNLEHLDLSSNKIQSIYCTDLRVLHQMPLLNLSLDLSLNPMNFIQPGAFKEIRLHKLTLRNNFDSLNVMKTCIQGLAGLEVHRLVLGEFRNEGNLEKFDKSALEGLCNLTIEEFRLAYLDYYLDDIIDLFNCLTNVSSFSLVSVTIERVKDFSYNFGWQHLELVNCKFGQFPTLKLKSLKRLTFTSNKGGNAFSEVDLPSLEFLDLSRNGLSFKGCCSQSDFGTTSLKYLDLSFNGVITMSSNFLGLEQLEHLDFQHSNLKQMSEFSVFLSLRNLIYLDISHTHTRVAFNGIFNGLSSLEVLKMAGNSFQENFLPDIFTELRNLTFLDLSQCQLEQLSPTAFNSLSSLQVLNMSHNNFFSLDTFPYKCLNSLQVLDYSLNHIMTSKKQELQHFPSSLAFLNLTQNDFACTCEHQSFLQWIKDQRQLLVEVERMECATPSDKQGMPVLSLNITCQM
Test: SEC; analytical SEC, Superdex 200 Increase 30/100 on a Dionex Ultimate 3000 UHPLC; 100-µl injections of 200 µg TLR4, 400 µg MD-2, or 200 µg TLR4 + 400 µg MD-2; A280 traces
Conditions: both partners purified

B1: human MD-2 (S2-derived, Protein A tagged) (natural protein, UniProt Q9Y6Y9 19-160, looked up)
chain: QKQYWVCNSSDASISYTYCDKMQYPISINVNPCIELKRSKGLLHIFYIPRRDLKQLYFNLYITVNTMNLPKRKEVICRGSDDDYSFCRALKGETVNTTISFSFKGIKFSKGKYKCVVEAISGSPEEMLFCLEFVILHQPNSN
notes: human lymphocyte antigen 96 (MD-2), UniProtKB Q9Y6Y9, Q19-N160, Drosophila codon-optimized; Cloned into pExpreS2-1-CRPA (Addgene #175445): N-terminal BiP signal peptide for secretion, thrombin site and Protein A at the C-terminus; the tag was routinely left on for stability; also called lymphocyte antigen 96; source: purified (IgG Sepharose, SEC); not shown: Protein A, C-terminal, kept
- binding result: binds
